Source: PMC6347689, “Native mass spectrometry reveals the conformational diversity of the UVR8 photoreceptor” (Proceedings of the National Academy of Sciences of the …, 2019)

T1: full-length UVR8 (UV … LOCUS8) (Arabidopsis thaliana), Q9FN03
T1 chain: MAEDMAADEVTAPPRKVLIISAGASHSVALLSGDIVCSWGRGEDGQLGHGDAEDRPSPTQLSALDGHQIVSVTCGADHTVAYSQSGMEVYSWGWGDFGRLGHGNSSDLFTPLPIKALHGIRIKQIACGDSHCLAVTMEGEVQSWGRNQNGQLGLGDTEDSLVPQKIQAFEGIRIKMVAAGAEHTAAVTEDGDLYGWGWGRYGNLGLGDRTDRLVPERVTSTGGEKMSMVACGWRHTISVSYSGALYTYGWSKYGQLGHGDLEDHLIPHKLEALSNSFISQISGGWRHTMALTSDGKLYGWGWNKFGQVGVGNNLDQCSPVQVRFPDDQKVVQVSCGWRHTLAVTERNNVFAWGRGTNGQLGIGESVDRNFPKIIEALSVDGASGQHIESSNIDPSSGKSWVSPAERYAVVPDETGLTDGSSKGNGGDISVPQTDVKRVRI


Columns and labels:
[1] = molecular target: the molecule itself; test: native MS; native ion mobility MS with nESI, sample in 250 mM ammonium acetate pH 6.8, 5–20 μM UVR8, in the absence of UV-B light
[2] = molecular target: T1, full-length UVR8 (UV … LOCUS8) …; test: as above; settings: remark: other sources report otherwise

Row | stoichiometry N [2] | Binder | stoichiometry N [1]
1 |  | UVR8 core domain (residues 12–381, UVR8^12–381) (domain or fragment, Arabidopsis thaliana, UniProt Q9FN03 12-381, looked up, Homodimer in the dark, monomer after UV-B; also called truncated UVR8; source: E. coli Rosetta 2 (DE3) pLysS, purified (Ni-NTA, Strep-Tactin XT, cleaved from the resin with SUMO protease); not shown: 7xHis, N-terminal, cleaved; Strep II, N-terminal, cleaved; SUMO, N-terminal, cleaved) APPRKVLIISAGASHSVALLSGDIVCSWGRGEDGQLGHGDAEDRPSPTQLSALDGHQIVSVTCGADHTVAYSQSGMEVYSWGWGDFGRLGHGNSSDLFTPLPIKALHGIRIKQIACGDSHCLAVTMEGEVQSWGRNQNGQLGLGDTEDSLVPQKIQAFEGIRIKMVAAGAEHTAAVTEDGDLYGWGWGRYGNLGLGDRTDRLVPERVTSTGGEKMSMVACGWRHTISVSYSGALYTYGWSKYGQLGHGDLEDHLIPHKLEALSNSFISQISGGWRHTMALTSDGKLYGWGWNKFGQVGVGNNLDQCSPVQVRFPDDQKVVQVSCGWRHTLAVTERNNVFAWGRGTNGQLGIGESVDRNFPKIIEALSVDG | 2
2 | 2 | full-length UVR8 (UV … LOCUS8), Q9FN03 1-440 (natural protein) MAEDMAADEVTAPPRKVLIISAGASHSVALLSGDIVCSWGRGEDGQLGHGDAEDRPSPTQLSALDGHQIVSVTCGADHTVAYSQSGMEVYSWGWGDFGRLGHGNSSDLFTPLPIKALHGIRIKQIACGDSHCLAVTMEGEVQSWGRNQNGQLGLGDTEDSLVPQKIQAFEGIRIKMVAAGAEHTAAVTEDGDLYGWGWGRYGNLGLGDRTDRLVPERVTSTGGEKMSMVACGWRHTISVSYSGALYTYGWSKYGQLGHGDLEDHLIPHKLEALSNSFISQISGGWRHTMALTSDGKLYGWGWNKFGQVGVGNNLDQCSPVQVRFPDDQKVVQVSCGWRHTLAVTERNNVFAWGRGTNGQLGIGESVDRNFPKIIEALSVDGASGQHIESSNIDPSSGKSWVSPAERYAVVPDETGLTDGSSKGNGGDISVPQTDVKRVRI | 
